According to patent US20240043552A1 (Eli Lilly, published 2024):

Columns and labels:
Assay in all cases: sandwich ELISA with mis-matched antigens
hHER-2-Fc = target: T1, hHER-2-Fc (human, UniProt P04626 23-652)
T1 construct: Bought (R&D systems); Coated on the plate; not shown: Fc of the bought fusion protein
Protocol: (§1) The dual-binding activity of the same synthesized IgG BsAbs is assessed using a sandwich ELISA. […] Sandwich ELISAs are developed for detecting the four different BsAb test articles; one for detecting anti-HER-2/anti-EGFR BsAb activity, one for detecting anti-HER-2/anti-LTPR BsAb activity, one for detecting anti-cMET/anti-EGFR BsAb activity and one for detecting anti-cMET/anti-LTPR BsAb activity. For all ELISAs, clear 96-well round bottom high binding Immulon microtiter plates (Greiner bio-one, cat #650061) are coated overnight at 2-8° C. with 50 μL/well 1 μg/mL hHER-2-Fc or 1 μg/mL hHGFR(cMet)-Fc (both from R&D systems) in a 50 mM Na2CO3 pH 8.3 buffer. The plates are washed 4 times with PBST and blocked with 200 μL/well casein buffer (Pierce) for 1 hr at room temperature. The plates are then washed 4 times with PBST and the parental IgG controls or BsAb IgG test articles are added at 50 μL/well and […] and serially diluted 1:3 down the plate. The controls and test articles are incubated on the plate for 1 hr at room temperature. The plates are then washed 4 times with PBST and 50 μL/well 1 μg/mL hEGFR-Fc-biotin or hLTβR-Fc-biotin (both from R&D systems) is added for 1 hr at room temperature. The plates are then washed 4 times with PBST followed by the addition of a 50 μL/well streptavidin-AP (Jackson Immunoresearch Labs Cat. #016-050-084) diluted 1:1000 in casein buffer. The streptavidin-AP is incubated in each well for 1 hr at room temperature. The plates are then washed 4 times with PBST and 100 μL/well 1-step PNPP substrate is added (Thermo Scientific Cat. #37621). After approximately 5-15 minutes, plates are read for Absorbance (405 nm) using a SPECTRAMAX® UV plate reader (Molecular Devices). Biotin-labeling of the hEGFR-Fc and hLTβR-Fc proteins is performed using EZ-LINK™ Sulfo-NHS-LC-Biotin (Thermo Scientific Cat. #21327) according to the manufacturer's protocol.

hEGFR-Fc-biotin = target: T2, hEGFR-Fc-biotin (human, UniProt P00533 25-645, biotin-labelled with EZ-LINK Sulfo-NHS-LC-Biotin)
T2 construct: Bought (R&D systems); Detection antigen of the sandwich; not shown: Fc of the bought fusion protein
Protocol: as §1

hHGFR(cMet)-Fc = target: T3, hHGFR(cMet)-Fc (human, UniProt P08581 25-932)
T3 construct: Bought (R&D systems); Coated on the plate; not shown: Fc of the bought fusion protein
Protocol: as §1

T3 sequence (P08581 25-932): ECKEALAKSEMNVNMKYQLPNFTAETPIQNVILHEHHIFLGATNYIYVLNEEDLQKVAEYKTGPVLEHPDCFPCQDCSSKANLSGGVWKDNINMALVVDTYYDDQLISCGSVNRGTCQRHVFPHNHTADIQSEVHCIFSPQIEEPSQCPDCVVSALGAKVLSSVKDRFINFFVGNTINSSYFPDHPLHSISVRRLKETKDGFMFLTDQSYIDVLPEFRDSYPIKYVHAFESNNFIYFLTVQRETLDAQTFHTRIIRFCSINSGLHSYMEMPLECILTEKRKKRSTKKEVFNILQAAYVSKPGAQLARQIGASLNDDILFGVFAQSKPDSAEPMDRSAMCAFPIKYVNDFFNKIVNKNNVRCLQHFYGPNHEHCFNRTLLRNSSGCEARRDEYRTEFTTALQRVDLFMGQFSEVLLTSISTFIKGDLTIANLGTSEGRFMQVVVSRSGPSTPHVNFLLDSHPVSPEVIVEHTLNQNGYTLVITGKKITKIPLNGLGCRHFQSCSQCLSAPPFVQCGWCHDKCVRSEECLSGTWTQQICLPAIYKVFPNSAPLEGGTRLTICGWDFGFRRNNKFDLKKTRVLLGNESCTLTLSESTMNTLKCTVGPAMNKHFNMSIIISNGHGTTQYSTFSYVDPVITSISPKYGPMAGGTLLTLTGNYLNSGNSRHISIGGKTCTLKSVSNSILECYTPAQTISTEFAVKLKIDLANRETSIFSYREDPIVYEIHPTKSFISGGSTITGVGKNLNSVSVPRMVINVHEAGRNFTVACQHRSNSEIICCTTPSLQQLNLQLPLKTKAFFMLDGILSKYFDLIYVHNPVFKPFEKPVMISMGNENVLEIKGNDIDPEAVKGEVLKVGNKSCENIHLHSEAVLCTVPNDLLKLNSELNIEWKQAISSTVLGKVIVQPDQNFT

binding result (hHER-2-Fc)	binding result (hEGFR-Fc-biotin)	binding result (hHGFR(cMet)-Fc)	Binder
no binding	no binding		MetMAb × BHA10 IgG BsAb, CH1/Cκ design 14.3.1.2 (bispecific antibody, Human IgG1; also called MetMAb × BHA10 14.3.1.2) heavy 1: EVQLVESGGGLVQPGGSLRLSCAASGYTFTSYWLHWVRKAPGKGLEWVGMIDPSNSDTRFNPEFKDRFTISADTSKNTAYLQMNSLRAEDTAVYYCATYRSYVTPLDYWGQGTLVTVSSASTKGPSVFPLAPSSKSTSGGTAALGCLVADYFPEPVTVSWNSGALTSGVHTFPAVLQSSGLYSLGSVVTVPSSSLGTQTYICNVNHKPSNTKVDKKVEPKSCDKTHTCPPCPAPELLGGPSVFLFPPKPKDTLMISRTPEVTCVVVDVSHEDPEVKFNWYVDGVEVHNAKTKPREEQYQSTYRVVSVLTVLHQDWLNGKEYKCKVSNKALPAPIEKTISKAKGQPREPQVYTLPPSREEMTDNQVSLTCLVKGFYPSDIAVEWESNGQPENNYKTTPPVLMSDGSFFLASKLTVDKSRWQQGNVFSCSVMHEALHNHYTQKSLSLSPG light 1: RIQMTQSPSSLSASVGDRVTITCKSSQSLLYTSSQKNYLAWYQDKPGKAPKLLIYWASTRESGVPSRFSGSGSGTDFTLTISSLQPEDFATYYCQQYYAYPWTFGQGTKVEIKRTVAAPSVFIFPPSDEQLKSGTARVVCLLNNFYPREAKVQWKVDNALQSGNSQESVTEQDSKDSTYSLISTLTLSKADYEKHKVYACEVTHQGLSSPVTKSFNRGEC heavy 2: QVQLVQSGAEVKKPGSSVKVSCKASGYTFTTYYLHWVRYAPGQGLEWMGWIYPGNVHAQYNEKFKGRVTITADKSTSTAYMELSSLRSEDTAVYYCARSWEGFPYWGRGTTVTVSSASTKGPSVFPLAPSSKSTSGGTAALGCLVKDYFPEPVTVSWNSGALTSGVHTFPAVLQSSGLYSLSSVVTVPSSSLGTQTYICNVNHKPSNTKVDEKVEPKSCDKTHTCPPCPAPELLGGPSVFLFPPKPKDTLMISRTPEVTCVVVDVSHEDPEVKFNWYVDGVEVHNAKTKPREEQYQSTYRVVSVLTVLHQDWLNGKEYKCKVSNKALPAPIEKTISKAKGQPRRPRVYTLPPSREEMTKNQVSLVCLVKGFYPSDIAVEWESNGQPENNYKTTPPVLDSDGSFFLYSVLTVDKSRWQQGNVFSCSVMHEALHNHYTQKSLSLSPG light 2: DIQMTQSPSSLSASVGDRVTITCKASQNVGINVAWYQRKPGDAPKSLISSASYRYSGVPSRFSGSGSGTDFTLTISSLQPEDFATYFCQQYDTYPFTFGQGTKVEIKRTVAAPSVFIFPPSDKQLKSGTASVVCLLNNFYPREAKVQWKVDNALQSGNSQESVTEQDSKDSTYSLSSTLTLSKADYEKHKVYACEVTHQGLSSPVTKSFNRGEC
	no binding	no binding	Pertuzumab × BHA10 IgG BsAb, CH1/Cκ Wild-Type (AB / H4DR variable domain designs, 7.8.60 CH3, N297Q) (bispecific antibody, Human IgG1; also called Pertuzumab × BHA10 Wild-Type) heavy 1: EVQLVESGGGLVQPGGSLRLSCAASGFTFTDYTMDWVRKAPGKGLEWVADVNPNSGGSIYNQEFKGRFTLSVDRSKNTLYLQMNSLRAEDTAVYYCARNLGPSFYFDYWGQGTLVTVSSASTKGPSVFPLAPSSKSTSGGTAALGCLVKDYFPEPVTVSWNSGALTSGVHTFPAVLQSSGLYSLSSVVTVPSSSLGTQTYICNVNHKPSNTKVDKKVEPKSCDKTHTCPPCPAPELLGGPSVFLFPPKPKDTLMISRTPEVTCVVVDVSHEDPEVKFNWYVDGVEVHNAKTKPREEQYQSTYRVVSVLTVLHQDWLNGKEYKCKVSNKALPAPIEKTISKAKGQPREPQVYTLPPSREEMTDNQVSLTCLVKGFYPSDIAVEWESNGQPENNYKTTPPVLMSDGSFFLASKLTVDKSRWQQGNVFSCSVMHEALHNHYTQKSLSLSPG light 1: RIQMTQSPSSLSASVGDRVTITCKASQDVSIGVAWYQDKPGKAPKLLIYSASYRYTGVPSRFSGSGSGTDFTLTISSLQPEDFATYYCQQYYIYPYTFGQGTKVEIKRTVAAPSVFIFPPSDEQLKSGTASVVCLLNNFYPREAKVQWKVDNALQSGNSQESVTEQDSKDSTYSLSSTLTLSKADYEKHKVYACEVTHQGLSSPVTKSFNRGEC heavy 2: QVQLVQSGAEVKKPGSSVKVSCKASGYTFTTYYLHWVRYAPGQGLEWMGWIYPGNVHAQYNEKFKGRVTITADKSTSTAYMELSSLRSEDTAVYYCARSWEGFPYWGRGTTVTVSSASTKGPSVFPLAPSSKSTSGGTAALGCLVKDYFPEPVTVSWNSGALTSGVHTFPAVLQSSGLYSLSSVVTVPSSSLGTQTYICNVNHKPSNTKVDKKVEPKSCDKTHTCPPCPAPELLGGPSVFLFPPKPKDTLMISRTPEVTCVVVDVSHEDPEVKFNWYVDGVEVHNAKTKPREEQYQSTYRVVSVLTVLHQDWLNGKEYKCKVSNKALPAPIEKTISKAKGQPRRPRVYTLPPSREEMTKNQVSLVCLVKGFYPSDIAVEWESNGQPENNYKTTPPVLDSDGSFFLYSVLTVDKSRWQQGNVFSCSVMHEALHNHYTQKSLSLSPG light 2: DIQMTQSPSSLSASVGDRVTITCKASQNVGINVAWYQRKPGDAPKSLISSASYRYSGVPSRFSGSGSGTDFTLTISSLQPEDFATYFCQQYDTYPFTFGQGTKVEIKRTVAAPSVFIFPPSDEQLKSGTASVVCLLNNFYPREAKVQWKVDNALQSGNSQESVTEQDSKDSTYSLSSTLTLSKADYEKHKVYACEVTHQGLSSPVTKSFNRGEC
	no binding	no binding	Pertuzumab × BHA10 IgG BsAb, CH1/Cκ design 14.1.2 (bispecific antibody, Human IgG1; also called Pertuzumab × BHA10 14.1.2) heavy 1: EVQLVESGGGLVQPGGSLRLSCAASGFTFTDYTMDWVRKAPGKGLEWVADVNPNSGGSIYNQEFKGRFTLSVDRSKNTLYLQMNSLRAEDTAVYYCARNLGPSFYFDYWGQGTLVTVSSASTKGPSVFPLAPSSKSTSGGTAALGCLVADYFPEPVTVSWNSGALTSGVHTFPAVLQSSGLYSLSSVVTVPSSSLGTQTYICNVNHKPSNTKVDEKVEPKSCDKTHTCPPCPAPELLGGPSVFLFPPKPKDTLMISRTPEVTCVVVDVSHEDPEVKFNWYVDGVEVHNAKTKPREEQYQSTYRVVSVLTVLHQDWLNGKEYKCKVSNKALPAPIEKTISKAKGQPREPQVYTLPPSREEMTDNQVSLTCLVKGFYPSDIAVEWESNGQPENNYKTTPPVLMSDGSFFLASKLTVDKSRWQQGNVFSCSVMHEALHNHYTQKSLSLSPG light 1: RIQMTQSPSSLSASVGDRVTITCKASQDVSIGVAWYQDKPGKAPKLLIYSASYRYTGVPSRFSGSGSGTDFTLTISSLQPEDFATYYCQQYYIYPYTFGQGTKVEIKRTVAAPSVFIFPPSDKQLKSGTARVVCLLNNFYPREAKVQWKVDNALQSGNSQESVTEQDSKDSTYSLSSTLTLSKADYEKHKVYACEVTHQGLSSPVTKSFNRGEC heavy 2: QVQLVQSGAEVKKPGSSVKVSCKASGYTFTTYYLHWVRYAPGQGLEWMGWIYPGNVHAQYNEKFKGRVTITADKSTSTAYMELSSLRSEDTAVYYCARSWEGFPYWGRGTTVTVSSASTKGPSVFPLAPSSKSTSGGTAALGCLVKDYFPEPVTVSWNSGALTSGVHTFPAVLQSSGLYSLSSVVTVPSSSLGTQTYICNVNHKPSNTKVDKKVEPKSCDKTHTCPPCPAPELLGGPSVFLFPPKPKDTLMISRTPEVTCVVVDVSHEDPEVKFNWYVDGVEVHNAKTKPREEQYQSTYRVVSVLTVLHQDWLNGKEYKCKVSNKALPAPIEKTISKAKGQPRRPRVYTLPPSREEMTKNQVSLVCLVKGFYPSDIAVEWESNGQPENNYKTTPPVLDSDGSFFLYSVLTVDKSRWQQGNVFSCSVMHEALHNHYTQKSLSLSPG light 2: DIQMTQSPSSLSASVGDRVTITCKASQNVGINVAWYQRKPGDAPKSLISSASYRYSGVPSRFSGSGSGTDFTLTISSLQPEDFATYFCQQYDTYPFTFGQGTKVEIKRTVAAPSVFIFPPSDEQLKSGTASVVCLLNNFYPREAKVQWKVDNALQSGNSQESVTEQDSKDSTYSLSSTLTLSKADYEKHKVYACEVTHQGLSSPVTKSFNRGEC
